In the nanobody polyreactivity screen of Harvey et al. (2022):

Assay: yeast display, Sf9 membrane polyspecificity reagent, FACS + sequencing; frameworks hold sequencing errors
How it was run: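 Galactose-induced (36–48 hours) yeast carrying a synthetic nanobody display library were exposed to 10% biotinylated, detergent-solubilized Sf9 membrane reagent at 4 °C for 1 hour. FACS followed streptavidin microbead enrichment, using low and high (top ~1%) gates for expression (anti-HA) and reagent binding (streptavidin). Colony PCR, MiSeq 2 × 250 sequencing and CDR-length filtering followed. Labels for polyreactivity reflect the gate of origin.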

With “QVQLVESGGGLVQAGGSLRLSCAASGFIFRGYAMGWYRQAPGKERELVAAISRRGGSTYYADSVKGRFTISRDNAKNTVYLQMNSLKPEDTAVYYCNARIRYVYWHSYDYWGQGTQVTVSS” as the sequence, how does the “polyreactivity (PSR sort gate)” value read?
Its value is “high polyreactivity”.

With “QVQLVESGGGLVQAGGSLRLSCAASGFIFRGYAMGWYRQAPGKERELVAAITGGGGRTYYADSVKGRFTISRDNAKNTVYLQMNSLKPEDTAVYYCARRFAYSFDYGYWGQGTQVTVSS” as the sequence, how does the “polyreactivity (PSR sort gate)” value read?
Its value is “high polyreactivity”.

With “QVQLVESGGGLVQAGGSLRLSCAASGFIFRKYAMGWYRQAPGKERELVAAIRQRGGTTYYADSVKGRFTISRDNAKNTVYLQMNSLKPEDTAVYYCAAPYSSAYKYDYWGQGTQVTVSS” as the sequence, how does the “polyreactivity (PSR sort gate)” value read?
The value was “high polyreactivity”.

For “QVQLVESGGGLVQAGGSLRLSCAASGFIFRKYAMGWYRQAPGTERELVAAIRQRGGTTYYADSVKGRFTISRDNAKNTVSLQMNSLKPEDTAVNYCAAPYSSAYKYDYWGQGTQVTVSS”, which “polyreactivity (PSR sort gate)” value is on record?
Its value is “high polyreactivity”.

For “QVQLVESGGGLVQAGGSLRLSCAASGFIFRLNTMGWYRQAPGKERELVATISSGGSTNYADSVKGRFTISRDNAKITVYLQMNSLKPEDTAVYYCAKKKTRYGGSYNYWGQGTQVTVSS”, which “polyreactivity (PSR sort gate)” value is on record?
The value was “high polyreactivity”.

For “QVQLVESGGGLVQAGGSLRLSCAASGFIFRLYDMVRYRQAPGKERELVAAISSGGRTNYADSVKGRFTISSDNPKNTVYLQMNSLKPEDTAVYYCAARSIFGYRSYGYWGQGTQVTVSS”, which “polyreactivity (PSR sort gate)” value is on record?
Its value is “high polyreactivity”.

With “QVQLVESGGGLVQAGGSLRLSCAASGFIFRPYVMGWYRQAPGKERELVAAISRSGSSTYYADSVKGRFTISRDNAKNTVYLQMNSLKPEDTAVYYCNAVYYLYKGDYWGQGTQVTVSS” as the sequence, how does the “polyreactivity (PSR sort gate)” value read?
The value was “high polyreactivity”.

For “QVQLVESGGGLVQAGGSLRLSCAASGFIFRRNTMGWYRQAPGKERELVAVITWSGGRTYYADSVKGRFTISRDNAKNTVYLQMNSLKPEDTAVYDCTAEQWWSLDYWGQGTQVTVSS”, which “polyreactivity (PSR sort gate)” value is on record?
Its value is “low polyreactivity”.

For “QVQLVESGGGLVQAGGSLRLSCAASGFIFRRYAMGWYRQAPGKERELVAAIRWDDGNTYYADSVKGRFTISRDNAKNTVYLQMNSLKPEDTAVYYCYADKWSSTDDWLYDYWGQGTQVTVSS”, which “polyreactivity (PSR sort gate)” value is on record?
The value was “low polyreactivity”.

Which “polyreactivity (PSR sort gate)” value does the source give for “QVQLVESGGGLVQAGGSLRLSCAASGFIFRRYAMGWYRQAPGKERELVAAISSGGRTYYADSVKGRFTISRDNAKNTVYLQMNSLKPEDTAVYYCAAYSPYLRSWYDYWGQGTQVTVSS” here?
Its value is “high polyreactivity”.

Which “polyreactivity (PSR sort gate)” value does the source give for “QVQLVESGGGLVQAGGSLRLSCAASGFIFRRYAMGWYRQAPGKERELVAAITRSGGSTYYADSVKGRFTISRDNAKNTVYLQMNSLKPEDTAVYYCAAPYFGANGKPEYGYWGQGTQVTVSS” here?
Its value is “high polyreactivity”.

Which “polyreactivity (PSR sort gate)” value does the source give for “QVQLVESGGGLVQAGGSLRLSCAASGFIFRRYAMGWYRQAPGKERELVAAITRSGGSTYYADSVKGRFTISRDTSKNTVYLQMNSLNPEDTAVYYCATKSSGPVLGYGYDYWGQGTQVTVSS” here?
The value was “high polyreactivity”.

For “QVQLVESGGGLVQAGGSLRLSCAASGFIFRRYTMGWYRQAPGKERELVATITRSVNTDYADSVKGRFTISRDNAKNTVYLQMNSLKPEDTAVYYCAARKYYYFPVAYDYWGQGTQVTVSS”, which “polyreactivity (PSR sort gate)” value is on record?
The value was “high polyreactivity”.

For “QVQLVESGGGLVQAGGSLRLSCAASGFIFRRYVMGWYRQAPGKERELVAAISNGGGRTYYADSVKGRFTISRDNAKNTVYLQMNSQKPEDTAVYYCAAYPRGPLAPDYDYWGQGTQVSVSS”, which “polyreactivity (PSR sort gate)” value is on record?
Its value is “high polyreactivity”.

With “QVQLVESGGGLVQAGGSLRLSCAASGFIFRSYAMGWYRQAPGKERELVAAISDGGGSTYYADSVKGRFTISRDNAKKTVYLQMNSLKPEDTAVYYCNAVYHPKGPSGYGYWGQGTQVTVSS” as the sequence, how does the “polyreactivity (PSR sort gate)” value read?
Its value is “low polyreactivity”.

For “QVQLVESGGGLVQAGGSLRLSCAASGFIFRSYAMGWYRQAPGKERELVAAISFSGGRTYYADSVKGRFTISRDNAKNTVYLQMNSLKPEDTAVYYCAAVPARIGVVLHIYTDSHYDYWGQGTQVTVSS”, which “polyreactivity (PSR sort gate)” value is on record?
Its value is “low polyreactivity”.

Which “polyreactivity (PSR sort gate)” value does the source give for “QVQLVESGGGLVQAGGSLRLSCAASGFIFRSYAMGWYRQAPGKERELVAAITKSGGRTYYADSVKGRFTISRDNAKNTVYLQMNSLKPEDSAVYYCAADQTSYSTSRRYDYWGQGTQVTVSS” here?
Its value is “high polyreactivity”.

For “QVQLVESGGGLVQAGGSLRLSCAASGFIFRSYAMGWYRQAPGKERELVAAITRSGGSTYYADSVKGRFTISRDNAKNTDYLQMNSLKPEDTAVYYCATRRYWYYILDYWGQGTQVTVSS”, which “polyreactivity (PSR sort gate)” value is on record?
The value was “high polyreactivity”.

With “QVQLVESGGGLVQAGGSLRLSCAASGFIFRSYVMGWYRQAPGKERELVAAITRSGVRTYYADSVKGRFTISRDNAKNTVYLQMNSLKPEDTAVYYCNADFSATRYWPGNYWGQGTQVTVSS” as the sequence, how does the “polyreactivity (PSR sort gate)” value read?
The value was “high polyreactivity”.

With “QVQLVESGGGLVQAGGSLRLSCAASGFIFRTNAMGWYRQAPGKERELVAAITSSGGTTFYADSVKGRFTISRDNAKNTVYLQMNSLKPEDTAVYYCAAAYKHRTRSWTYGYWGQGTQVTVSS” as the sequence, how does the “polyreactivity (PSR sort gate)” value read?
The value was “high polyreactivity”.

With “QVQLVESGGGLVQAGGSLRLSCAASGFIFRVNAMGWSRQEPGKERELVAAISASGGTTYYADSVKGRFTISRDNAKNTVYLQMNSQKPEDTAVYYCIAPSRTRYDFWGQGTQVTVSW” as the sequence, how does the “polyreactivity (PSR sort gate)” value read?
The value was “low polyreactivity”.

For “QVQLVESGGGLVQAGGSLRLSCAASGFIFRVNAMGWYRPAPGKERELVAAITKSGGSTYYADSVKGRFTISRDNAKNTVYLQMNSLKPEDTAVYYCNVVWYEGYGHWGQGTQVTVSS”, which “polyreactivity (PSR sort gate)” value is on record?
Its value is “low polyreactivity”.

Which “polyreactivity (PSR sort gate)” value does the source give for “QVQLVESGGGLVQAGGSLRLSCAASGFIFRWNAMGWYRQAPGKVRELVAAISNSDGSTYYADSVKGRFTISRDNAKNTVYVQMNSLKPEDTAVYYCYKLYRGGWYDYWGQGTQVTVSS” here?
The value was “low polyreactivity”.

Which “polyreactivity (PSR sort gate)” value does the source give for “QVQLVESGGGLVQAGGSLRLSCAASGFIFRWYAMGWYRQAPGKERELVAAITWRGGSTYADSVKGRFTISRDNAKNTVYLQMNSLKPEDTAVCYCAAETHRRYDYWGQGTQVTVSS” here?
The value was “high polyreactivity”.

Which “polyreactivity (PSR sort gate)” value does the source give for “QVQLVESGGGLVQAGGSLRLSCAASGFIFRYNAMGWYRQAPGKERELVAAITSNGGRTYYADSVKGRFTISRDNAKNTVYLQMNSLKPEDTAVYYCNALGRTYPAYQDDYWGQGTQVTVSS” here?
Its value is “high polyreactivity”.

For “QVQLVESGGGLVQAGGSLRLSCAASGFIFRYYAKGWYRQAPGKERELVAAISSSGGSTYYADSVKGRFTISRDNAQKTVYLQMNSLKPEDTAVYYCNAYNYGYIGYGYNYWGQGTQVTVSS”, which “polyreactivity (PSR sort gate)” value is on record?
The value was “high polyreactivity”.

For “QVQLVESGGGLVQAGGSLRLSCAASGFIFRYYAMGLYRHAPGKERELVASISSGGSTDYADSVKGRFTISRDNAKNTVYLQMNSLKPEDTAVYYCAAGYRSLSLHVGSYRYYYRGQGTQVTVSS”, which “polyreactivity (PSR sort gate)” value is on record?
Its value is “high polyreactivity”.

For “QVQLVESGGGLVQAGGSLRLSCAASGFIFRYYAMGWARQAPAKERELVAAISWSGTRTFYADSVKARFTISRDNAKNTVYLQMNSLKPEDTAVYYCAAETTGYDSYIQYEYWGQGTQVTVSS”, which “polyreactivity (PSR sort gate)” value is on record?
Its value is “high polyreactivity”.

Which “polyreactivity (PSR sort gate)” value does the source give for “QVQLVESGGGLVQAGGSLRLSCAASGFIFRYYAMGWLRQAPGKERELVAAISWSGGNTYYADSVKGRFTISRDNAKNTVYLQMNSLKPEDTAVYYCAARVARISVPYDYWGQGTQVTVSS” here?
The value was “low polyreactivity”.

Which “polyreactivity (PSR sort gate)” value does the source give for “QVQLVESGGGLVQAGGSLRLSCAASGFIFRYYAMGWYIQAPGKERELVAAITISGTRTYYADSVKGRFTISRDNAKNTVYLQMNSLKPEDTAVYYCAAYTSVRPKLDYWGQGTQVTVSS” here?
Its value is “high polyreactivity”.

For “QVQLVESGGGLVQAGGSLRLSCAASGFIFRYYAMGWYRQAPGKEREFVAGITGTGGSTYYADSVKGRFTISRDNAKNTVYLQMNSLKPEDTAVYYCAADLWYFSSRVRYGYWGQGTQVTVSS”, which “polyreactivity (PSR sort gate)” value is on record?
The value was “high polyreactivity”.

For “QVQLVESGGGLVQAGGSLRLSCAASGFIFRYYAMGWYRQAPGKEREFVAVISSGGGRTYYADSVKGRFTISRDNAKNTVYLQMNSLKPEDTAVYYCAKGYRYWVRIVRSFTSYDYWGQGTQVTVSS”, which “polyreactivity (PSR sort gate)” value is on record?
The value was “high polyreactivity”.

Which “polyreactivity (PSR sort gate)” value does the source give for “QVQLVESGGGLVQAGGSLRLSCAASGFIFRYYAMGWYRQAPGKERELDAAISGSGGSTYYADSVKGRFTISRDNAKNTVYLQMNSLKPEDTAVYYCAKSYGSHRKIRTSFGYWGQGTQVTVSS” here?
The value was “high polyreactivity”.

Which “polyreactivity (PSR sort gate)” value does the source give for “QVQLVESGGGLVQAGGSLRLSCAASGFIFRYYAMGWYRQAPGKERELVAAIRRGGSTYYADSVKGRFTISRDNAKNTVYLQMNSLKPEDTAVYYCAASFWGIAMGYWGQGTQVTVSS” here?
The value was “high polyreactivity”.

With “QVQLVESGGGLVQAGGSLRLSCAASGFIFRYYAMGWYRQAPGKERELVAAISGSGGSTYYADSVKGRFTISRDNAKNTVYLQMNSLKPEDTAVYYCAAYYYGYEYWGQGTQVTVSS” as the sequence, how does the “polyreactivity (PSR sort gate)” value read?
The value was “high polyreactivity”.

With “QVQLVESGGGLVQAGGSLRLSCAASGFIFRYYAMGWYRQAPGKERELVAAISWSGSSTYYADSVKGRFTISRDNAKNTVYLQMNSLKPEDTAVYYCNAVTRNARDYWGQGTLVTVSS” as the sequence, how does the “polyreactivity (PSR sort gate)” value read?
The value was “high polyreactivity”.

Which “polyreactivity (PSR sort gate)” value does the source give for “QVQLVESGGGLVQAGGSLRLSCAASGFIFRYYAMGWYRQAPGKERELVAAITSDGSTYYADSVKGRFTISRDNAKNTVYLQMNSLKPEDTAVYYCARSVYRFYLKTRASDYWGQGTQETVSS” here?
The value was “high polyreactivity”.

Which “polyreactivity (PSR sort gate)” value does the source give for “QVQLVESGGGLVQAGGSLRLSCAASGFIFRYYAMGWYRQAPGKERELVAAITSRGSSTYYADSVKGRFTISRDNAKNTVYLQMNSLKPEDTAVYYCAARLRGDYVRYDYWGQGTQVTVSS” here?
The value was “high polyreactivity”.

For “QVQLVESGGGLVQAGGSLRLSCAASGFIFRYYAMGWYRQAPGKERELVARIRSSGGSTYYADSVKGRFTISRDNAKKTVYLKMNSLKPEDTAVYYCDTVSYITYYGGYGYWGQGTQVTVSS”, which “polyreactivity (PSR sort gate)” value is on record?
Its value is “high polyreactivity”.

With “QVQLVESGGGLVQAGGSLRLSCAASGFIFRYYAMGWYRQAPGKERELVATINSSGGSTYYADSVKGRFTISRDNAKNTVYLQMNSLKPEDTAVYYCYAGYVSYRGQSRYEYWGQGTQVTVSS” as the sequence, how does the “polyreactivity (PSR sort gate)” value read?
Its value is “high polyreactivity”.

Which “polyreactivity (PSR sort gate)” value does the source give for “QVQLVESGGGLVQAGGSLRLSCAASGFIFRYYTMGWYRQAPGKERELVAAISYSGGRTYYADSVKGRFTISRDNAKNTVYLQMNSVKPEDTAVYYCAARQGYVDDDYWGQGTQVTVSS” here?
The value was “high polyreactivity”.

For “QVQLVESGGGLVQAGGSLRLSCAASGFIFRYYTMGWYRQAPGKERELVAAITSGGSTTYADSVKGRFTISRDNAKNTVYFQMNSLKPEDTAVYYCNTAYWYSLYDYWGQGTQVTVSS”, which “polyreactivity (PSR sort gate)” value is on record?
The value was “high polyreactivity”.

For “QVQLVESGGGLVQAGGSLRLSCAASGFIFRYYTMGWYRQAPRKERELVASITSGGSTYYADSVKGRFTSSRDNAKNTVYLQMNCLKPEDTAVYSCAKHRDVLWRYKYWGQGTQVTVSS”, which “polyreactivity (PSR sort gate)” value is on record?
Its value is “high polyreactivity”.
